From US20040250304A1 (EISAI R AND D MANAGEMENT, published 2004)
One block for each binder: values may come before it.

Legend:
[1] = target: T1, synthetic Aβ (1-42) peptide (UniProt P05067 672-713); test: Aβ (1-42) binding to HEK293 cells expressing human CLAC-P; Western blotting
T1 construct: domain: Aβ (1-42); also called beta-amyloid; amyloid-beta peptide

[2] = target: T1, synthetic Aβ (1-42) peptide; test: solid phase binding: Aβ (1-42) immobilized on 96-well plates, culture supernatant applied, detection with anti-CLAC antibody and peroxidase secondary antibody, TMB; ten trials
Description: In vitro binding of CLAC to Aβ was performed according to a method of Webster et al. (Am. J. Pathol., 150, 1531 (1997)).
The transformant (strain 9D2-1) permanently expressing human CLAC-P obtained in Example 3 was selection-cultured in DMEM medium containing 10% FBS and hygromycin for 4 days, and the culture supernatant was collected. Fifty μl (0.1 mg/ml) of synthetic Aβ (1-42) (Bachem) was immobilized to each well of 96-well micro-well plates (Greiner), and dried in a desiccator. Thereafter, blocking was performed with PBS-T containing 1% gelatin (Wako Junyaku) for 1 hour, and washed with PBS-T for 10 min (3×), and the culture supernatant obtained was applied. Similarly, culture supernatant of control HEK293 cells used in Example 3 was applied. After reaction at room temperature for 1 hour, washed with PBS-T for 10 min (5×), and then reacted with anti-CLAC antibody diluted with similar blocking solution (1/5000) at room temperature for 1 hour. After washing with PBS-T for 10 min (5×), reacted with a secondary antibody (anti-rabbit Ig, horseradish peroxidase bound whole antibody (Amersham)) diluted with similar blocking solution (1/5000) at room temperature for 1 hour. After washing with PBS-T for 10 min (5×), colour was developed with TMB reagent (Kirkegard & Perry Laboratories).

T1 sequence (P05067 672-713 limits assumed): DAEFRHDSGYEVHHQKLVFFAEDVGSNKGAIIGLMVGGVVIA

binding result [1]: binds
B1: human CLAC-P (precursor of CLAC), full length (receptor)
chain: MLLKKHAGKGGGREPRSEDPTPAEQHCSRTMPPCAVLAALLSVVAVVSCLYLGVKTNDLQARIAALESAKGAPSIHLLPDTLDHLKTMVQEKVERLLAQKSYEHMAKIRIAREAPSECNCPAGPPGKRGKRGRRGESGPPGQPGPQGPPGPKGDKGEQGDQGPRMVFPKINHGFLSADQQLIKRRLIKGDQGQAGPPGPPGPPGPRGPPGDTGKDGPRGMPGVPGEPGKPGEQGLMGPLGPPGQKGSIGAPGIPGMNGQKGEPGLPGAVGQNGIPGPKGEPGEQGEKGDAGENGPKGDTGEKGDPGSSAAGIKGEPGESGRPGQKGEPGLPGLPGLPGIKGEPGFIGPQGEPGLPGLPGTKGERGEAGPPGRGERGEPGAPGPKGKQGESGTRGPKGSKGDRGEKGDSGAQGPRGPPGQKGDQGATKIIDYNGNLHEALQRITTLTVTGPPGPPGPQGLQGPKGEQGSPGIPGMDGEQGLKGSKGDMGDPGMTGEKGGIGLPGLPGANGMKGEKGDSGMPGPQGPSIIGPPGPPGPHGPPGPMGPHGLPGPKGTDGPMGPHGPAGPKGERGEKGAMGEPGPRGPYGLPGKDGEPGLDGFPGPRGEKGDLGEKGEKGFRGVKGEKGEPGQPGLDGLDAPCQLGPDGLPMPGCWQK
notes: Type II single pass transmembrane protein of 654 amino acids, expressed permanently in HEK293 cells (strains 9D2-1, 9D2-2, 9D2-11); also called full length recombinant CLAC-P protein; 9D2 antigen precursor

fold colour development against control HEK293 supernatant [2]: ~50 times
B2: CLAC secreted by HEK293 transformant strain 9D2-1 permanently expressing human CLAC-P (other)
chain: EAPSECNCPAGPPGKRGKRGRRGESGPPGQPGPQGPPGPKGDKGEQGDQGPRMVFPKINHGFLSADQQLIKRRLIKGDQGQAGPPGPPGPPGPRGPPGDTGKDGPRGMPGVPGEPGKPGEQGLMGPLGPPGQKGSIGAPGIPGMNGQKGEPGLPGAVGQNGIPGPKGEPGEQGEKGDAGENGPKGDTGEKGDPGSSAAGIKGEPGESGRPGQKGEPGLPGLPGLPGIKGEPGFIGPQGEPGLPGLPGTKGERGEAGPPGRGERGEPGAPGPKGKQGESGTRGPKGSKGDRGEKGDSGAQGPRGPPGQKGDQGATKIIDYNGNLHEALQRITTLTVTGPPGPPGPQGLQGPKGEQGSPGIPGMDGEQGLKGSKGDMGDPGMTGEKGGIGLPGLPGANGMKGEKGDSGMPGPQGPSIIGPPGPPGPHGPPGPMGPHGLPGPKGTDGPMGPHGPAGPKGERGEKGAMGEPGPRGPYGLPGKDGEPGLDGFPGPRGEKGDLGEKGEKGFRGVKGEKGEPGQPGLDGLDAPCQLGPDGLPMPGCWQK
modifications: Usually, the first amino acid Glu of CLAC is cyclized to be pyroglutamic acid residue
notes: also called crude purified CLAC; culture supernatant of transformant permanently expressing CLAC-P
